T1: FOXL2 (Homo sapiens, UniProt P58012 1-376)
T1 sequence: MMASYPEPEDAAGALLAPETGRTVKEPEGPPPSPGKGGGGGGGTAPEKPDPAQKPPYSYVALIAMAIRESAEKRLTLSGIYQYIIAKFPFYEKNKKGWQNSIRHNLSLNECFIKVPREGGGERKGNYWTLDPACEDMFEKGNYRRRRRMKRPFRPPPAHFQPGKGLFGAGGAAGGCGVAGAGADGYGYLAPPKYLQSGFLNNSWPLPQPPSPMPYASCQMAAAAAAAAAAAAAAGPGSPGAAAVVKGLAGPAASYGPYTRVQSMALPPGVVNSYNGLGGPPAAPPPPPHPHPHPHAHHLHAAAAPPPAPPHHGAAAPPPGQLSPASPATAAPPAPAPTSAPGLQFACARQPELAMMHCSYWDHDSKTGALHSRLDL

T2: FOXL2 C134W (Homo sapiens, UniProt P58012 1-376, C134W)
T2 sequence: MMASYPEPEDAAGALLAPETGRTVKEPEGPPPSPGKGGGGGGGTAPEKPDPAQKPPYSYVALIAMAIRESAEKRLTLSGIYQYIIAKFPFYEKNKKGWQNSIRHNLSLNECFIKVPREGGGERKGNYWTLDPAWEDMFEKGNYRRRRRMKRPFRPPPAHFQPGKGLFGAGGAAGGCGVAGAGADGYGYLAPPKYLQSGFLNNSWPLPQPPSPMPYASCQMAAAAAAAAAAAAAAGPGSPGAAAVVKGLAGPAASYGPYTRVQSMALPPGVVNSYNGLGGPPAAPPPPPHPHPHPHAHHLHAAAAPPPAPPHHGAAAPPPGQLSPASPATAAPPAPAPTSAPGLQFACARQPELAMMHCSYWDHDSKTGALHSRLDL

T3: FOXL2 wt (recombinant) (UniProt P58012 1-376)
T3 sequence: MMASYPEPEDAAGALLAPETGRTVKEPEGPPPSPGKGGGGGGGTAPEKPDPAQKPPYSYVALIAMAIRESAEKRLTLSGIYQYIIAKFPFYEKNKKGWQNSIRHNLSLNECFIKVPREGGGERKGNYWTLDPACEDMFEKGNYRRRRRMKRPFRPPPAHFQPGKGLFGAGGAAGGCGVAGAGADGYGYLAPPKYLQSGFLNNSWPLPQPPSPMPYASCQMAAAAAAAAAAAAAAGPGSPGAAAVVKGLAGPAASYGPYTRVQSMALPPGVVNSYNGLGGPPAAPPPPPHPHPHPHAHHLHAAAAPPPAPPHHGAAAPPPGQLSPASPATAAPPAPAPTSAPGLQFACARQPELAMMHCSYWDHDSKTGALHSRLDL

T4: FOXL2 C134W (mutFOXL2) (UniProt P58012 1-376, C134W)
T4 sequence: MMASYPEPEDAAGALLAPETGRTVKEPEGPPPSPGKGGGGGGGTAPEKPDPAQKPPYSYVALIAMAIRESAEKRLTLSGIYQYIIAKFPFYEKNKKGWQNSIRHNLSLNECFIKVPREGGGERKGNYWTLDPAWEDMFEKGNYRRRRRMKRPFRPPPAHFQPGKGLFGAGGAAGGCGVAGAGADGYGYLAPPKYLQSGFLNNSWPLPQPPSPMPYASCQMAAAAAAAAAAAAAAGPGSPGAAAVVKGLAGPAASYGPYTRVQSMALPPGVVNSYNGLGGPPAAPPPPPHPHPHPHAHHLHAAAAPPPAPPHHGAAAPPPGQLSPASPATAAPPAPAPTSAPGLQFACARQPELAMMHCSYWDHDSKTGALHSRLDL

B1: scr50 (ssRNA)
RNA: GGGAGAGUAUCCGUUGAGGCUGAGGGACACUCGCUGUUUUCGAAAUUACCCUUUAUGCGCGGGUAUUGAACCAAGAUCGGAAGAGCGUCGUGUAGG
B2: RF002 (ssRNA)
RNA: GGGAGAGUAUCCGUUGAGGCUGAUCGGACUUUGGUGGUUGGAGGACGGAUGGACGGAGGUUUAUUAGGCUCGCAGAUCGGAAGAGCGUCGUGUAGG
B3: RF002 DNA (ssDNA)
DNA: GGGAGAGTATCCGTTGAGGCTGATCGGACTTTGGTGGTTGGAGGACGGATGGACGGAGGTTTATTAGGCTCGCAGATCGGAAGAGCGTCGTGTAGG
B4: RF004 (ssRNA)
RNA: GGGAGAGUAUCCGUUGAGGCUGAAUCUGCGACUGGCUGGAGGUGGACGGAUGGCUGGAGGCGAAAUUGGCUUAAGAUCGGAAGAGCGUCGUGUAGG
B5: RF001 (ssRNA)
RNA: GGGAGAGUAUCCGUUGAGGCUGACGUCAUUUGGUGGAUGGCGGAAGGAGGCGGAGGACGGGAAAUUCUGGAAAAGAUCGGAAGAGCGUCGUGUAGG
B6: mutRF001 (ssRNA)
RNA: GGGAGAGUAUCCGUUGAGGCUGACGUCAUUUGAGUGAGUGAGCGAGAGAGAGUGCGUGAGAGACGAGAGCGUGAGAUCGGAAGAGCGUCGUGUAGG
B7: RF000 (ssRNA)
RNA: GGGAGAGUAUCCGUUGAGGCUGAGAGGUAUUAAGAGGCGGAGGCGGAAGGAUGGCGGAGGACCGACAGAGAAGAGAUCGGAAGAGCGUCGUGUAGG
B8: RF001 DNA (ssDNA)
DNA: GGGAGAGTATCCGTTGAGGCTGACGTCATTTGGTGGATGGCGGAAGGAGGCGGAGGACGGGAAATTCTGGAAAAGATCGGAAGAGCGTCGTGTAGG
B9: RF004 DNA (ssDNA)
DNA: GGGAGAGTATCCGTTGAGGCTGAATCTGCGACTGGCTGGAGGTGGACGGATGGCTGGAGGCGAAATTGGCTTAAGATCGGAAGAGCGTCGTGTAGG
B10: RF000 DNA (ssDNA)
DNA: GGGAGAGTATCCGTTGAGGCTGAGAGGTATTAAGAGGCGGAGGCGGAAGGATGGCGGAGGACCGACAGAGAAGAGATCGGAAGAGCGTCGTGTAGG

What was measured:
[1] = target: T1, FOXL2; assay: pulldown; 37 C; 10 mM HEPES, 140 mM KCl, 25 mM NaCl, 1 mM MgCl2, 0.1 mM CaCl2; equimolar mix, tRNA; conditions: tags: His-SUMO, cleaved
[2] = target: T2, FOXL2 C134W; assay: as above; conditions: tags: His-SUMO, cleaved
[3] = target: T3, FOXL2 wt (recombinant); assay: pull-down competition + HTS; K+/Na+ buffer, tRNA competitor; 10 mM HEPES (pH 7.5), 140 mM KCl, 25 mM NaCl, 1 mM MgCl2, 0.1 mM CaCl2, 0.001% IGEPAL, 100 nM yeast tRNA, 50 nM total aptamers, 37 C, 30 min; Li+ variant: 140 mM LiCl replaces KCl/NaCl; conditions: protein: recombinant; tags: His-SUMO tag cleaved; putative two-tier intramolecular G4
[4] = target: T4, FOXL2 C134W (mutFOXL2); assay: as above; conditions: protein: recombinant; tags: His-SUMO tag cleaved; putative two-tier intramolecular G4
[5] = target: T3, FOXL2 wt (recombinant); assay: pull-down competition + HTS; mixed with RF000/RF002 DNA and scr50 RNA; 10 mM HEPES (pH 7.5), 140 mM KCl, 25 mM NaCl, 1 mM MgCl2, 0.1 mM CaCl2, 0.001% IGEPAL, 100 nM yeast tRNA, 50 nM total aptamers, 37 C, 30 min; Li+ variant: 140 mM LiCl replaces KCl/NaCl; conditions: protein: recombinant; tags: His-SUMO tag cleaved; putative two-tier intramolecular G4
[6] = target: T3, FOXL2 wt (recombinant); assay: pull-down competition + HTS; K+/Na+ buffer; basically absent; 10 mM HEPES (pH 7.5), 140 mM KCl, 25 mM NaCl, 1 mM MgCl2, 0.1 mM CaCl2, 0.001% IGEPAL, 100 nM yeast tRNA, 50 nM total aptamers, 37 C, 30 min; Li+ variant: 140 mM LiCl replaces KCl/NaCl; conditions: protein: recombinant; tags: His-SUMO tag cleaved; unable to fold into G4
[7] = target: T4, FOXL2 C134W (mutFOXL2); assay: as above; conditions: protein: recombinant; tags: His-SUMO tag cleaved; unable to fold into G4
[8] = target: T3, FOXL2 wt (recombinant); assay: pull-down competition + HTS; mixed with mutRF001; 10 mM HEPES (pH 7.5), 140 mM KCl, 25 mM NaCl, 1 mM MgCl2, 0.1 mM CaCl2, 0.001% IGEPAL, 100 nM yeast tRNA, 50 nM total aptamers, 37 C, 30 min; Li+ variant: 140 mM LiCl replaces KCl/NaCl; conditions: protein: recombinant; tags: His-SUMO tag cleaved; putative two-tier intramolecular G4
[9] = target: T3, FOXL2 wt (recombinant); assay: pull-down competition + HTS; 140 mM LiCl, no K+/Na+; 10 mM HEPES (pH 7.5), 140 mM KCl, 25 mM NaCl, 1 mM MgCl2, 0.1 mM CaCl2, 0.001% IGEPAL, 100 nM yeast tRNA, 50 nM total aptamers, 37 C, 30 min; Li+ variant: 140 mM LiCl replaces KCl/NaCl; conditions: protein: recombinant; tags: His-SUMO tag cleaved; putative two-tier intramolecular G4

Binder | binding result [1] | binding result [2] | further results
B1 | no binding | no binding | 
B2 | binds | binds | 
GAGGUAUUAAGAGGCGGAGGCGGAAGGAUGGCGGAGGACCGACAGAGAAG (structured_RNA) [RF000 RNA] |  |  | binding result [3]: binds; binding result [4]: binds
B3 | no binding |  | 
B4 | binds | binds | 
B5 | binds | binds | 
B6 | no binding |  | 
AUCUGCGACUGGCUGGAGGUGGACGGAUGGCUGGAGGCGAAAUUGGCUUA (structured_RNA) [RF004 RNA] |  |  | binding result [4]: binds; binding result [5]: binds
B7 | binds | binds | 
B8 | no binding |  | 
GGGACACUCGCUGUUUUCGAAAUUACCCUUUAUGCGCGGGUAUUGAACCA (ssRNA) [scr50 RNA] |  |  | binding result [6]: no binding; binding result [7]: no binding
B9 | no binding |  | 
B10 | no binding |  | 
CGUCAUUUGGUGGAUGGCGGAAGGAGGCGGAGGACGGGAAAUUCUGGAAA (structured_RNA) [RF001 RNA] |  |  | binding signal [8]: > 10 fold enrichment RF001/mutRF001 vs no-protein control; binding result [4]: binds
UCGGACUUUGGUGGUUGGAGGACGGAUGGACGGAGGUUUAUUAGGCUCGC (structured_RNA) [RF002 RNA] |  |  | binding result [9]: binds; binding result [4]: binds
